For the assay, the target named is integrin α4β7 (human α4 and β7 subunits co-expressed on 293T cells) (human) (UniProt P13612).
Sequence of UniProt P13612 (P13612 34-1032, chain 1 of 2): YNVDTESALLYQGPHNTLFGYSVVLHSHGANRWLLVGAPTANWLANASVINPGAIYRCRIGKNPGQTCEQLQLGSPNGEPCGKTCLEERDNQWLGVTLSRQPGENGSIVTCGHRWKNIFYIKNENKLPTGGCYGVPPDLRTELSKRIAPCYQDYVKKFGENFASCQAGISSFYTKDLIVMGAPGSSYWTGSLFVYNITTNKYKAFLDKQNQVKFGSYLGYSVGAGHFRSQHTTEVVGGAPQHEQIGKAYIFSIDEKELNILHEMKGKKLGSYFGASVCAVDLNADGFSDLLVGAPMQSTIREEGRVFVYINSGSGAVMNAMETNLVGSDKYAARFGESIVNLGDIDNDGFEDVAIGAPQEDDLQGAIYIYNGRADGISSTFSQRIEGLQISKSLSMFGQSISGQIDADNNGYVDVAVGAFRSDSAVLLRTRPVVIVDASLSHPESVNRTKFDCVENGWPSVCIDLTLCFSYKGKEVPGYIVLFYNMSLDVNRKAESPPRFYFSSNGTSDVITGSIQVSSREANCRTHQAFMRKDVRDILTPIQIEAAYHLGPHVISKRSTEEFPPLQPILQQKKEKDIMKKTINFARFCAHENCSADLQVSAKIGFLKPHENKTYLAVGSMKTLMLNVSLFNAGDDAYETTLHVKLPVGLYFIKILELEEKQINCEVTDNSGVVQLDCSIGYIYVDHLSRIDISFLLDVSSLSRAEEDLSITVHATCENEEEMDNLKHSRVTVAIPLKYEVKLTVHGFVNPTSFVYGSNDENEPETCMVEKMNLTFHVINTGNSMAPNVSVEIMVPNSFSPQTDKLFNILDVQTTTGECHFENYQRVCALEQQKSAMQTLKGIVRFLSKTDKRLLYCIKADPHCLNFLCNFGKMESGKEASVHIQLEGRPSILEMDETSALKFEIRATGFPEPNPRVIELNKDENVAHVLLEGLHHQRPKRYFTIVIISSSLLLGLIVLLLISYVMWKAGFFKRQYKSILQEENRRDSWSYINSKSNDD
Sequence of UniProt P13612 (P26010 20-798, chain 2 of 2, further chain): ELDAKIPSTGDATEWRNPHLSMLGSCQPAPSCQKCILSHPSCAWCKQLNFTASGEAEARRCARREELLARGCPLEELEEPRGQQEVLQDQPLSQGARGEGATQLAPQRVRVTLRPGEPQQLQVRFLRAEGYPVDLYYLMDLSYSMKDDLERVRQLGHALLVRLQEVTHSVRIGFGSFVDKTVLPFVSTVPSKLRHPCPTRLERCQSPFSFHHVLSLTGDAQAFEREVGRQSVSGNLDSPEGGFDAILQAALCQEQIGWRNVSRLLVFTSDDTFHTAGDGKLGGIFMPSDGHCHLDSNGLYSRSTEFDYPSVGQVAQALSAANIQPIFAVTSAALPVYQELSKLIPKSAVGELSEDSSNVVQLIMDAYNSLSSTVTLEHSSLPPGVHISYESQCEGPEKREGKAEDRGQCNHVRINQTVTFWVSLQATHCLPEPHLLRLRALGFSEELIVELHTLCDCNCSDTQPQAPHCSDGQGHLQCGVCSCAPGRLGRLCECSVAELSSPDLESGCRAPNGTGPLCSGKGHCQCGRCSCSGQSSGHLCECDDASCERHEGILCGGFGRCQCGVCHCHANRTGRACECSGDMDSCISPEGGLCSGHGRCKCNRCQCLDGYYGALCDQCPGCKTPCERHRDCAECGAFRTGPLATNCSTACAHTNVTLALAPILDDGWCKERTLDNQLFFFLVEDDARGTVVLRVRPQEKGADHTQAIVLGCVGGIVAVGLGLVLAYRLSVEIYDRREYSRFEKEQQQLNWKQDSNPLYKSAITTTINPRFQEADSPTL
“HIV-1 subtype C CAP206 transmitted/founder (T/F) envelope glycoprotein on infectious envelope clone virus (natural protein)” came in with a α4β7 dependence for replication (Act-1 mAb inhibition of p24 in ATRA-treated CD4+ T cells) above 50%.
On to “HIV-1 subtype C CAP88 transmitted/founder (T/F) envelope glycoprotein on infectious envelope clone virus (natural protein)”, for which the α4β7 dependence for replication (Act-1 mAb inhibition of p24 in ATRA-treated CD4+ T cells) is above 50%.
Under “HIV-1 subtype C CAP225 transmitted/founder (T/F) envelope glycoprotein (SDI motif) on infectious envelope clone virus (natural protein)” stands above 50%.
On to “HIV-1 subtype C CAP200 transmitted/founder (T/F) envelope glycoprotein (SDV motif) on infectious envelope clone virus (natural protein)”, for which the α4β7 dependence for replication (Act-1 mAb inhibition of p24 in ATRA-treated CD4+ T cells) is above 50%.

The record behind these values is publication PMC4479312.
